Measurements from publication PMC11574045, “A cofactor-induced repressive type of transcription factor condensation can be induced by synthetic peptides to suppress tumorigenesis” (The EMBO Journal, 2024).
Residue numbers refer to the chain shown, from its start.

B1: FOXM1 (protein, UniProt O08696 1-760, looked up)
Forkhead box protein M1: MRTSPRRPLILKRRRLPLPVQNAPSETSEEEAKRSPAQPEPAPAQASQEVAESSSCKFPAGIKIINHPTTPNTQVVAIPSNADIQSIITALTAKGKESGTSGPNRFILISSGGPSSHPSQPQAHSSRDSKRAEVITETLGPKPAAKGVPVPKPPGAPPRQRQESYAGGEAAGCTLDNSLTNIQWLGKMSSDGLGPCSVKQELEEKENCHLEQNRVKVEEPSGVSTSWQDSVSERPPYSYMAMIQFAINSTERKRMTLKDIYTWIEDHFPYFKHIAKPGWKNSIRHNLSLHDMFVRETSANGKVSFWTIHPSANRHLTLDQVFKPLEPGSPQSPEHLESQQKRPNPELHRNVTIKTEIPLGARRKMKPLLPRVSSYLEPIQFPVNQSLVLQPSVKVPFRLAASLMSSELARHSKRVRIAPKVLLSSEGIAPLPATEPPKEEKPLLGGEGLLPLLPIQSIKEEEMQPEEDIAHLERPIKVESPPLEEWPSPCASLKEELSNSWEDSSCSPTPKPKKSYCGLKSPTRCVSEMLVTKRREKREVSRSRRKQHLQPPCLDEPDLFFPEDSSTFRPAVELLAESSEPAPHLSCPQEEGGPFKTPIKETLPVSSTPSKSVLSRDPESWRLTPPAKVGGLDFSPVRTPQGAFGLLPDSLGLMELNTTPLKSGPLFDSPRELLNSEPFDLASDPFGSPPPPHVEGPKPGSPELQIPSLSANRSLTEGLVLDTMNDSLSKILLDISFPGLEEDPLGPDNINWSQFIPELR
B2: FOXA3 (protein, UniProt P55318 1-350, looked up)
Hepatocyte nuclear factor …: MLGSVKMEAHDLAEWSYYPEAGEVYSPVTPVPTMAPLNSYMTLNPLSSPYPPGGLPASPLPSGPLAPPAPAAPLGPTFPGLGVSGGSSSSGYGAPGPGLVHGKEMPKGYRRPLAHAKPPYSYISLITMAIQQAPGKMLTLSEIYQWIMDLFPYYRENQQRWQNSIRHSLSFNDCFVKVARSPDKPGKGSYWALHPSSGNMFENGCYLRRQKRFKLEEKVKKGGSGAATTTRNGTGSAASTTTPAATVTSPPQPPPPAPEPEAQGGEDVGALDCGSPASSTPYFTGLELPGELKLDAPYNFNHPFSINNLMSEQTPAPPKLDVGFGGYGAEGGEPGVYYQGLYSRSLLNAS
B3: FOXF2 (protein, UniProt O54743 1-446, looked up)
Forkhead box protein F2: MSTEGGPPPPPPRPPPAPLRRACSPAPGALQAALMSPPPAATLESTSSSSSSSSASCASSSSNSVSASAGACKSAASSGGAGAGSGGTKKATSGLRRPEKPPYSYIALIVMAIQSSPSKRLTLSEIYQFLQARFPFFRGAYQGWKNSVRHNLSLNECFIKLPKGLGRPGKGHYWTIDPASEFMFEEGSFRRRPRGFRRKCQALKPMYHRVVSGLGFGASLLPQGFDFQAPPSAPLGCHGQGGYGGLDMMPAGYDTGAGAPGHAHPHHLHHHHVPHMSPNPGSTYMASCPVPAGPAGVGAAAGGGGGGGDYGPDSSSSPVPSSPAMASAIECHSPYTSPAAHWSSPGASPYLKQPPALTPSSNPAASAGLHPSMSSYSLEQSYLHQNAREDLSVGLPRYQHHSTPVCDRKDFVLNFNGISSFHPSASGSYYHHHHQSVCQDIKPCVM
B4: FOXE3 (protein, UniProt Q13461 1-319, looked up)
Forkhead box protein E3: MAGRSDMDPPAAFSGFPALPAVAPSGPPPSPLAGAEPGREPEEAAAGRGEAAPTPAPGPGRRRRRPLQRGKPPYSYIALIAMALAHAPGRRLTLAAIYRFITERFAFYRDSPRKWQNSIRHNLTLNDCFVKVPREPGNPGKGNYWTLDPAAADMFDNGSFLRRRKRFKRAELPAHAAAAPGPPLPFPYAPYAPAPGPALLVPPPSAGPGPSPPARLFSVDSLVNLQPELAGLGAPEPPCCAAPDAAAAAFPPCAAAASPPLYSQVPDRLVLPATRPGPGPLPAEPLLALAGPAAALGPLSPGEAYLRQPGFASGLERYL
B5: FOXA1 (protein, UniProt P55317 1-472, looked up)
Hepatocyte nuclear factor …: MLGTVKMEGHETSDWNSYYADTQEAYSSVPVSNMNSGLGSMNSMNTYMTMNTMTTSGNMTPASFNMSYANPGLGAGLSPGAVAGMPGGSAGAMNSMTAAGVTAMGTALSPSGMGAMGAQQAASMNGLGPYAAAMNPCMSPMAYAPSNLGRSRAGGGGDAKTFKRSYPHAKPPYSYISLITMAIQQAPSKMLTLSEIYQWIMDLFPYYRQNQQRWQNSIRHSLSFNDCFVKVARSPDKPGKGSYWTLHPDSGNMFENGCYLRRQKRFKCEKQPGAGGGGGSGSGGSGAKGGPESRKDPSGASNPSADSPLHRGVHGKTGQLEGAPAPGPAASPQTLDHSGATATGGASELKTPASSTAPPISSGPGALASVPASHPAHGLAPHESQLHLKGDPHYSFNHPFSINNLMSSSEQQHKLDFKAYEQALQYSPYGSTLPASLPLGSASVTTRSPIEPSALEPAYYQGVYSRPVLNTS
B6: FOXI2 (protein, UniProt Q6ZQN5 1-318, looked up)
Forkhead box protein I2: MATYCDDLGPSSAPPGQAQATAHPPGYEPGDLGAVGGGPLLWVNAPALSPKSYASGPGPAPPYAAPSYGAPGPLLGAPGGLAGADLAWLSLSGQQELLRLVRPPYSYSALIAMAIQSAPLRKLTLSQIYQYVAGNFPFYKRSKAGWQNSIRHNLSLNDCFKKVPRDEDDPGKGNYWTLDPNCEKMFDNGNFRRKRKRRAEASAAVRSGARSVGGAEAPALEPPSAACLDLQASPSPSAPEAATCFSGFASAMSALAGGLGTFPGGLAGDFSFGRRPPTVATHAPQTLNPSPGFAPGHQTAAAGFRLSHLLYSREGTEV
B7: FOXD4L1 (protein, UniProt Q9NU39 1-408, looked up)
Forkhead box protein D4-like 1: MNLPRAERPRSTPQRSLRDSDGEDGKIDVLGEEEDEDEVEDEEEEASQKFLEQSLQPGLQVARWGGVALPREHIEGGGPSDPSEFGTEFRAPPRSAAASEDARQPAKPPYSYIALITMAILQSPHKRLTLSGICAFISGRFPYYRRKFPAWQNSIRHNLSLNDCFVKIPREPGHPGKGTYWSLDPASQDMFDNGSFLRRRKRFKRHQLTPGAHLPHPFPLPAAHAALHNPRPGPLLGAPALPQPVPGAYPNTAPGRRPYALLHPHPPRYLLLSAPAYAGAPKKAEGADLATPGTLPVLQPSLGPQPWEEGKGLASPPGGGCISFSIESIMQGVRGAGTGAAQSLSPTAWSYCPLLQRPSSLSDNFAATAAASGGGLRQRLRSHQGRGAGRAPVGRVGAAAVSGGGRGL
B8: FOXD4L4 (protein, UniProt Q8WXT5 1-416, looked up)
Forkhead box protein D4-like 4: MNLPRAERPRSTPQRSLRDSDGEDGKIDVLGEEEDEDEVEDEEEEARQQFLEQSLQPGLQVARWGGVALPREHIEGGGGPSDPSEFGTKFRAPPRSAAASEDARQPAKPPYSYIALITMAILQNPHKRLTLSGICAFISGRFPYYRRKFPAWQNSIRHNLSLNDCFVKIPREPGHPGKGNYWSLDPASQDMFDNGSFLRRRKRFKRHQLTPGAHLPHPFPLPAAHAALHNPHPGPLLGAPAPPQPVPGAYPNTAPGRRPYALLHPHPLRYLLLSARVYAGAPKKAEGADLATPAPFPCCSPHLVLSLGRRARVWRRHREADASLSALRVLCKGSGERVQGLRRVCPRPRGATATCSSDHQACCIPKPLPLCCKCPPPLLLGQFCSNSSSIRRTAPTAALPPRARCWAGTCRPRRRC
B9: FOXD4L5 (protein, UniProt Q5VV16 1-416, looked up)
Forkhead box protein D4-like 5: B8 Forkhead box protein D4-like 4 with R258C, R276P
B10: AIOLOS (protein, UniProt Q9UKT9 1-509, looked up)
Zinc finger protein Aiolos: MEDIQTNAELKSTQEQSVPAESAAVLNDYSLTKSHEMENVDSGEGPANEDEDIGDDSMKVKDEYSERDENVLKSEPMGNAEEPEIPYSYSREYNEYENIKLERHVVSFDSSRPTSGKMNCDVCGLSCISFNVLMVHKRSHTGERPFQCNQCGASFTQKGNLLRHIKLHTGEKPFKCHLCNYACQRRDALTGHLRTHSVEKPYKCEFCGRSYKQRSSLEEHKERCRTFLQSTDPGDTASAEARHIKAEMGSERALVLDRLASNVAKRKSSMPQKFIGEKRHCFDVNYNSSYMYEKESELIQTRMMDQAINNAISYLGAEALRPLVQTPPAPTSEMVPVISSMYPIALTRAEMSNGAPQELEKKSIHLPEKSVPSERGLSPNNSGHDSTDTDSNHEERQNHIYQQNHMVLSRARNGMPLLKEVPRSYELLKPPPICPRDSVKVINKEGEVMDVYRCDHCRVLFLDYVMFTIHMGCHGFRDPFECNMCGYRSHDRYEFSSHIARGEHRALLK
B11: FOXB2 (protein, UniProt Q5VYV0 1-432, looked up)
Forkhead box protein B2: MPRPGKSSYSDQKPPYSYISLTAMAIQHSAEKMLPLSDIYKFIMERFPYYREHTQRWQNSLRHNLSFNDCFIKIPRRPDQPGKGSFWALHPDCGDMFENGSFLRRRKRFKVLRADHTHLHAGSTKSAPGAGPGGHLHPHHHHHPHHHHHHHAAAHHHHHHHPPQPPPPPPPPPPHMVHYFHQQPPTAPQPPPHLPSQPPQQPPQQSQPQQPSHPGKMQEAAAVAAAAAAAAAAAVGSVGRLSQFPPYGLGSAAAAAAAAAASTSGFKHPFAIENIIGRDYKGVLQAGGLPLASVMHHLGYPVPGQLGNVVSSVWPHVGVMDSVAAAAAAAAAAGVPVGPEYGAFGVPVKSLCHSASQSLPAMPVPIKPTPALPPVSALQPGLTVPAASQQPPAPSTVCSAAAASPVASLLEPTAPTSAESKGGSLHSVLVHS
B12: FOXI1 (protein, UniProt Q12951 1-378, looked up)
Forkhead box protein I1: MSSFDLPAPSPPRCSPQFPSIGQEPPEMNLYYENFFHPQGVPSPQRPSFEGGGEYGATPNPYLWFNGPTMTPPPYLPGPNASPFLPQAYGVQRPLLPSVSGLGGSDLGWLPIPSQEELMKLVRPPYSYSALIAMAIHGAPDKRLTLSQIYQYVADNFPFYNKSKAGWQNSIRHNLSLNDCFKKVPRDEDDPGKGNYWTLDPNCEKMFDNGNFRRKRKRKSDVSSSTASLALEKTESSLPVDSPKTTEPQDILDGASPGGTTSSPEKRPSPPPSGAPCLNSFLSSMTAYVSGGSPTSHPLVTPGLSPEPSDKTGQNSLTFNSFSPLTNLSNHSGGGDWANPMPTNMLSYGGSVLSQFSPHFYNSVNTSGVLYPREGTEV
B13: FOSL2 (protein, UniProt P15408 1-326, looked up)
Fos-related antigen 2: MYQDYPGNFDTSSRGSSGSPAHAESYSSGGGGQQKFRVDMPGSGSAFIPTINAITTSQDLQWMVQPTVITSMSNPYPRSHPYSPLPGLASVPGHMALPRPGVIKTIGTTVGRRRRDEQLSPEEEEKRRIRRERNKLAAAKCRNRRRELTEKLQAETEELEEEKSGLQKEIAELQKEKEKLEFMLVAHGPVCKISPEERRSPPAPGLQPMRSGGGSVGAVVVKQEPLEEDSPSSSSAGLDKAQRSVIKPISIAGGFYGEEPLHTPIVVTSTPAVTPGTSNLVFTYPSVLEQESPASPSESCSKAHRRSSSSGDQSSDSLNSPTLLAL

The molecules below were run on HEK293FT cells transfected with TF library (assay: Screening of TF condensates based on fluorescent puncta). Details: Figure 1B numerical data; TF library screen, one value per transcriptional factor.
Assay type: cell-based
Method in brief: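 Condensate formation is scored as Alexa 488-labelled puncta after Flag- or GAL4-tag immunostaining of fixed HEK293FT cells expressing individual TFs, with a 12 h glucose-free or glucose-containing culture preceding fixation.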

Row | Molecule | Z score of condensed fraction
1 | B1 | 2.036
2 | B2 | 0.4813
3 | B3 | 0.2019
4 | B4 | -0.8488
5 | B5 | -0.3489
6 | B6 | -0.5391
7 | B7 | -0.9826
8 | B8 | 0.1205
9 | B9 | -0.7466
10 | B10 | 0.5203
11 | B11 | -0.2645
12 | B12 | -1.1314
13 | B13 | -0.8108
